Results reported in paper PMC5919673, “Effector gene birth in plant parasitic nematodes: Neofunctionalization of a housekeeping glutathione synthetase gene” (PLoS Genetics, 2018).
One block for each molecule: values may come before it.

Legend:
[1] = target: Globodera pallida Clade 1 glutathione synthetase Gpa-GSS1 (Globodera pallida); experiment: SEC; S200 analytical gel filtration column; purified proteins migrate between the 150 kDa and 75 kDa protein standards, at a mass consistent with a homodimer (50 kDa per subunit)
[2] = target: Globodera pallida Clade 3 GS-like effector Gpa-GSS24 (Globodera pallida); experiment: as above
[3] = target: Solanum tuberosum glutathione synthetase St-GSS1 (Solanum tuberosum); experiment: as above
[4] = target: Globodera pallida Clade 3 GS-like effector Gpa-GSS17 (Globodera pallida); experiment: as above
[5] = target: Globodera pallida Clade 3 GS-like effector Gpa-GSS30 (Globodera pallida); experiment: as above
[6] = target: T1, St-GSS1 (Solanum tuberosum, UniProt M1CSC4); experiment: malachite green phosphate release from ATP; assay type: biochemical; details: glycine, 20 mM MgCl2, 5 mM DTT, 100 mM HEPES pH 7.5, 30 °C
T1 construct: gene LOC102589405; His6-SUMO tag cleaved by 3C protease (pOPINS3C); E. coli SHuffle; homodimer, about 50 kDa per subunit
T1 sequence (M1CSC4 1-483): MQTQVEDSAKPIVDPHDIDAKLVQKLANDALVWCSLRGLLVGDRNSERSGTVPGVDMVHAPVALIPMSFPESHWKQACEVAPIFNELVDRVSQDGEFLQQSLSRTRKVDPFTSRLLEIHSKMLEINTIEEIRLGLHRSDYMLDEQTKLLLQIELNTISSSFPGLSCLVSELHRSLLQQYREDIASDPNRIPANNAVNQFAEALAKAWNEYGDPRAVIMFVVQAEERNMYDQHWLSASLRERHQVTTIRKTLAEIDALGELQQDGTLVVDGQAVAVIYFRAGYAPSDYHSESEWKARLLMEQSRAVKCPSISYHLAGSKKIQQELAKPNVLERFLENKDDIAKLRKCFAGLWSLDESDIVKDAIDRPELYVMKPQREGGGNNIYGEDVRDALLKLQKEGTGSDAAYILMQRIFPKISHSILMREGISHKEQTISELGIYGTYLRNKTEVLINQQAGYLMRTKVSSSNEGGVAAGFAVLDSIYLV

[7] = target: T2, Gpa-GSS1 (Globodera pallida, UniProt A0A183BS86); experiment: malachite green phosphate release from ATP; assay type: biochemical; details: glycine, 20 mM MgCl2, 5 mM DTT, 100 mM HEPES pH 7.5, 30 °C
T2 construct: full-length; His6-SUMO tag cleaved by 3C protease (pOPINS3C); E. coli SHuffle; homodimer, about 50 kDa per subunit

[8] = target: Globodera pallida Clade 3 GS-like effector Gpa-GSS12 (Globodera pallida); experiment: SEC; S200 analytical gel filtration column; purified proteins migrate between the 150 kDa and 75 kDa protein standards, at a mass consistent with a homodimer (50 kDa per subunit)
[9] = target: Globodera pallida Clade 3 GS-like effector Gpa-GSS22 (Globodera pallida); experiment: as above
[10] = target: Globodera pallida Clade 2 glutathione synthetase Gpa-GSS5 (Globodera pallida); experiment: as above

- stoichiometry N [1]: 2
Molecule: Globodera pallida Clade 1 glutathione synthetase Gpa-GSS1 (enzyme)

Molecule: Globodera pallida Clade 3 GS-like effector Gpa-GSS24 (natural protein)
- stoichiometry N [2]: 2

- stoichiometry N [3]: 2
Molecule: Solanum tuberosum glutathione synthetase St-GSS1 (enzyme)

Molecule: Globodera pallida Clade 3 GS-like effector Gpa-GSS17 (natural protein)
- stoichiometry N [4]: 2

Molecule: Globodera pallida Clade 3 GS-like effector Gpa-GSS30 (natural protein)
- stoichiometry N [5]: 2

Molecule: N[C@@H](CCC(=O)N[C@@H](CS)C(=O)O)C(=O)O [γ-EC]
- Km [6]: The Km for γ-EC for canonical GS enzymes.
- Km [7]: The Km for γ-EC for canonical GS enzymes.

Molecule: Globodera pallida Clade 3 GS-like effector Gpa-GSS12 (natural protein)
- stoichiometry N [8]: 2

Molecule: Globodera pallida Clade 3 GS-like effector Gpa-GSS22 (natural protein)
- stoichiometry N [9]: 2

- stoichiometry N [10]: 2
Molecule: Globodera pallida Clade 2 glutathione synthetase Gpa-GSS5 (enzyme)
